Source: paper PMC5989791

Molecular target: amatuximab, chimerized monoclonal IgG1 antibody targeting mesothelin (unlabelled) (human)
Assay: ELISA

- percent decrease of CD16a binding to amatuximab: 50%
- percent reduction of amatuximab binding to CD32a: 29%
Substance: CA125 tumor-shed antigen, soluble (sCA125), patient-derived (from UniProt Q8WXI7 1-14507) (natural protein)
